Experimental data reported in US20240190985A1 (published 2024).
Positions count from the first letter of the chain named. Names may count otherwise. One block for each binder: values may come before it.

What was measured:
[1] = biological target: T1, SUMO-CD99 fusion protein (SUMO fused with the extracellular domain of CD99, residues 23-122) (UniProt P14209 23-122, biotin on the AviTag (BirA, in vitro)); test: bead-based titration (flow cytometry); apparent KD, nM Fv, scFv-Fc
T1 chain: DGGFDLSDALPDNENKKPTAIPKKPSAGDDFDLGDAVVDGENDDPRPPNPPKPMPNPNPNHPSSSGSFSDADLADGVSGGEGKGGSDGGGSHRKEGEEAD

[2] = biological target: T2, CD99 endogenously expressed on cells (Jurkat, KOPT-K1) (UniProt P14209 23-185, O-linked glycosylation (natural, on cells)); test: cell binding; apparent KD; nM molecule; avid
T2 chain: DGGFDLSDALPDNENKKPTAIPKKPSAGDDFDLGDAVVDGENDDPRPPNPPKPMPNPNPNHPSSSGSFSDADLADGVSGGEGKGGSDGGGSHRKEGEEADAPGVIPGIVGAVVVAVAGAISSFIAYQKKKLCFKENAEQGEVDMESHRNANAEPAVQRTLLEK

[3] = biological target: T2, CD99 endogenously expressed on cells …; test: cell binding; apparent KD; nM Fv; avid
[4] = biological target: T2, CD99 endogenously expressed on cells …; test: cell binding; apparent KD; nM Fv
[5] = biological target: T2, CD99 endogenously expressed on cells …; test: cell binding; apparent KD; nM molecule

B3: 10A1 IgG-E345R (antibody)
heavy: QVQLQQSGPVLVKPSQTLSLTCAISGDSISSDTTAWSWIRRSPSRGLEWLGWTYYRSKWFNYYAVSVKGRVTINPDTSKNQFSLQLSSVTPEDTAVYYCARGNGNGGMDVWGQGTTVTVSSASTKGPSVFPLAPSSKSTSGGTAALGCLVKDYFPEPVTVSWNSGALTSGVHTFPAVLQSSGLYSLSSVVTVPSSSLGTQTYICNVNHKPSNTKVDKKVEPKSCDKTHTCPPCPAPEAAGGPSVFLFPPKPKDTLMISRTPEVTCVVVDVSHEDPEVKFNWYVDGVEVHNAKTKPREEQYNSTYRVVSVLTVLHQDWLNGKEYKCKVSNKALGAPIEKTISKAKGQPRRPQVYTLPPSREEMTKNQVSLTCLVKGFYPSDIAVEWESNGQPENNYKTTPPVLDSDGSFFLYSKLTVDKSRWQQGNVFSCSVMHEALHNHYTQKSLSLSPGK
light: SYVLTQPASASVSPGQTARITCSGDALPKQYAYWYQQKPGQAPVLVIFKDSERPSGVPERFSGSSSGTTVTLTISGAQAEDEADYYCQSVDNSGFYQVFGGGTQLTVLRTVAAPSVFIFPPSDEQLKSGTASVVCLLNNFYPREAKVQWKVDNALQSGNSQESVTEQDSKDSTYSLSSTLTLSKADYEKHKVYACEVTHQGLSSPVTKSFNRGEC
- Kd [2]: 8 nM
- Kd [3]: 16 nM

B4: 10A1 IgG-LALA (antibody)
heavy: B3 heavy with R349E
light: B3 light
- Kd [2]: 2.7 nM
- Kd [3]: 5.4 nM

B5: 10A1 IgG-HCscFv (antibody)
heavy: QVQLQQSGPVLVKPSQTLSLTCAISGDSISSDTTAWSWIRRSPSRGLEWLGWTYYRSKWFNYYAVSVKGRVTINPDTSKNQFSLQLSSVTPEDTAVYYCARGNGNGGMDVWGQGTTVTVSSASTKGPSVFPLAPSSKSTSGGTAALGCLVKDYFPEPVTVSWNSGALTSGVHTFPAVLQSSGLYSLSSVVTVPSSSLGTQTYICNVNHKPSNTKVDKKVEPKSCDKTHTCPPCPAPEAAGGPSVFLFPPKPKDTLMISRTPEVTCVVVDVSHEDPEVKFNWYVDGVEVHNAKTKPREEQYNSTYRVVSVLTVLHQDWLNGKEYKCKVSNKALGAPIEKTISKAKGQPREPQVYTLPPSREEMTKNQVSLTCLVKGFYPSDIAVEWESNGQPENNYKTTPPVLDSDGSFFLYSKLTVDKSRWQQGNVFSCSVMHEALHNHYTQKSLSLSPGKSSGSSGSSSSSGSSSQVQLQQSGPVLVKPSQTLSLTCAISGDSISSDTTAWSWIRRSPSRGLEWLGWTYYRSKWFNYYAVSVKGRVTINPDTSKNQFSLQLSSVTPEDTAVYYCARGNGNGGMDVWGQGTTVTVSSGSSSSSSGSSGSSSSSYVLTQPASASVSPGQTARITCSGDALPKQYAYWYQQKPGQAPVLVIFKDSERPSGVPERFSGSSSGTTVTLTISGAQAEDEADYYCQSVDNSGFYQVFGGGTQLTVL
light: B3 light
- Kd [2]: 1.3 nM
- Kd [3]: 5.3 nM

B7: 10A1 Fab (Fab, V domains shown)
VH: QVQLQQSGPVLVKPSQTLSLTCAISGDSISSDTTAWSWIRRSPSRGLEWLGWTYYRSKWFNYYAVSVKGRVTINPDTSKNQFSLQLSSVTPEDTAVYYCARGNGNGGMDVWGQGTTVTVSS
VL: SYVLTQPASASVSPGQTARITCSGDALPKQYAYWYQQKPGQAPVLVIFKDSERPSGVPERFSGSSSGTTVTLTISGAQAEDEADYYCQSVDNSGFYQVFGGGTQLTVL
- Kd [4]: > 250 nM
- Kd [5]: > 250 nM

Other lines, results leading:

- Kd [1]: 18 nM
B1: clone 22 in the scFv-Fc format (Fc fusion)
chain: QVQLQQSGPGLVKPSQTLSLTCAISGDSVSSNSAAWNWIRQSPSRGLEWLGRTYYRSKWYNDYAVSVKSRITINPDTSKNQFSLQLNSVTPEDTAVYYCARGSYGSGLVWGQGTTVTVSSGSASAPTGILGSGGGGSGGGGSGGGGSNFMLTQPHSVSESPGKTVTISCTGSSGSIASNYVQWYQQRPGSAPTTVIYEDDQRPSGVPDRFSGSLDTSSNSASLTISGLRPEDEADYYCQSYDNKDNVVFGGGTKVTVLSGSSSSLEGCKPCICTVPEVSSVFIFPPKPKDVLTITLTPKVTCVVVDISKDDPEVQFSWFVDDVEVHTAQTQPREEQFNSTFRSVSELPIMHQDWLNGKEFKCRVNSAAFPAPIEKTISKTKGRPKAPQVYTIPPPKEQMAKDKVSLTCMITDFFPEDITVEWQWNGQPAENYKNTQPIMDTDGSYFVYSKLNVQKSNWEAGNTFTCSVLHEGLHNHHTEKSLSHSPGKGGGGLNDIFEAQKIEWHESRHHHHHH

- Kd [1]: 14 nM
B2: clone 10 in the scFv-Fc format (Fc fusion)
chain: QVQLQQSGPVLVKPSQTLSLTCAISGDSVSSDTTAWSWIRQSPSRGLEWLGWTYYRSKWFNYYAVSVKSRVTINPDTSKNQFSLQLSSVTPEDTAVYYCARGNGNGGMDVWGQGTTVTVSSGILGSGGGGSGGGGSGGGGSSYVLTQPPSVSVSPGQTARITCSGDALPKQYAYWYQQKPGQAPVLVIFKDSERPSGIPERFSGSSSGTTVTLTISGVQAEDEADYYCQSADNSGFYQVFGGGTQLTVLSGSSSSLEGCKPCICTVPEVSSVFIFPPKPKDVLTITLTPKVTCVVVDISKDDPEVQFSWFVDDVEVHTAQTQPREEQFNSTFRSVSELPIMHQDWLNGKEFKCRVNSAAFPAPIEKTISKTKGRPKAPQVYTIPPPKEQMAKDKVSLTCMITDFFPEDITVEWQWNGQPAENYKNTQPIMDTDGSYFVYSKLNVQKSNWEAGNTFTCSVLHEGLHNHHTEKSLSHSPGKGGGGLNDIFEAQKIEWHESRHHHHHH

- Kd [2]: 0.5 nM
- Kd [3]: 6.2 nM
B6: 10A1 IgG-RGY (antibody)
heavy: B3 heavy with E434G, S444Y
light: B3 light
